Experimental data from paper PMC12416549 (2024).

T1: TNFR1 (Homo sapiens, UniProt P19438)
T1 chain: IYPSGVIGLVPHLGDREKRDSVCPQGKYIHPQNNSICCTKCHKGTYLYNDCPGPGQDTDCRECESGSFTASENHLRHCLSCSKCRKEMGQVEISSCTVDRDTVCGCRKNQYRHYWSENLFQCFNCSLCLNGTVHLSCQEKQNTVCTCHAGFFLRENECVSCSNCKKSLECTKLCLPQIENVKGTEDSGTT


Target: T1, TNFR1
Assay: yeast display SC50

| Binder | apparent Kd (screen) [nM] |
| --- | --- |
| K64N (designed binder) SMEEEVEKAAKEYEKKKKEAIEKHLEKLKAKDKEAAERFLKELEEAAKEYAKDEAKTMSEEEANRRAKKYKEKVLLSELSEEEQKEIKEAEEKLVRTILKYVEEAAK | 0.653 |
| E42Q (designed binder) SMEEEVEKAAKEYEKKKKEAIEKHLEKLKAKDKEAAERFLKQLEEAAKEYAKDEAKTMSEEEAKRRAKKYKEKVLLSELSEEEQKEIKEAEEKLVRTILKYVEEAAK | 9.41 |
| K16P (designed binder) SMEEEVEKAAKEYEKPKKEAIEKHLEKLKAKDKEAAERFLKELEEAAKEYAKDEAKTMSEEEAKRRAKKYKEKVLLSELSEEEQKEIKEAEEKLVRTILKYVEEAAK | 18.3 |
| A47S (designed binder) SMEEEVEKAAKEYEKKKKEAIEKHLEKLKAKDKEAAERFLKELEEASKEYAKDEAKTMSEEEAKRRAKKYKEKVLLSELSEEEQKEIKEAEEKLVRTILKYVEEAAK | 2.05 |
| K41M (designed binder) SMEEEVEKAAKEYEKKKKEAIEKHLEKLKAKDKEAAERFLMELEEAAKEYAKDEAKTMSEEEAKRRAKKYKEKVLLSELSEEEQKEIKEAEEKLVRTILKYVEEAAK | 0.446 |
| A10F (designed binder) SMEEEVEKAFKEYEKKKKEAIEKHLEKLKAKDKEAAERFLKELEEAAKEYAKDEAKTMSEEEAKRRAKKYKEKVLLSELSEEEQKEIKEAEEKLVRTILKYVEEAAK | 10.4 |
| S1N (designed binder) NMEEEVEKAAKEYEKKKKEAIEKHLEKLKAKDKEAAERFLKELEEAAKEYAKDEAKTMSEEEAKRRAKKYKEKVLLSELSEEEQKEIKEAEEKLVRTILKYVEEAAK | 0.593 |
| K33A (designed binder) SMEEEVEKAAKEYEKKKKEAIEKHLEKLKAKDAEAAERFLKELEEAAKEYAKDEAKTMSEEEAKRRAKKYKEKVLLSELSEEEQKEIKEAEEKLVRTILKYVEEAAK | 0.49 |
| E45S (designed binder) SMEEEVEKAAKEYEKKKKEAIEKHLEKLKAKDKEAAERFLKELESAAKEYAKDEAKTMSEEEAKRRAKKYKEKVLLSELSEEEQKEIKEAEEKLVRTILKYVEEAAK | 2.73 |
| K27T (designed binder) SMEEEVEKAAKEYEKKKKEAIEKHLETLKAKDKEAAERFLKELEEAAKEYAKDEAKTMSEEEAKRRAKKYKEKVLLSELSEEEQKEIKEAEEKLVRTILKYVEEAAK | 0.956 |
| K52C (designed binder) SMEEEVEKAAKEYEKKKKEAIEKHLEKLKAKDKEAAERFLKELEEAAKEYACDEAKTMSEEEAKRRAKKYKEKVLLSELSEEEQKEIKEAEEKLVRTILKYVEEAAK | 1.27 |

Other lines, results leading:

| apparent Kd (screen) [nM] | Binder |
| --- | --- |
| 1.86 | E86F (designed binder) SMEEEVEKAAKEYEKKKKEAIEKHLEKLKAKDKEAAERFLKELEEAAKEYAKDEAKTMSEEEAKRRAKKYKEKVLLSELSEEEQKFIKEAEEKLVRTILKYVEEAAK |
| 0.593 | E81Q (designed binder) SMEEEVEKAAKEYEKKKKEAIEKHLEKLKAKDKEAAERFLKELEEAAKEYAKDEAKTMSEEEAKRRAKKYKEKVLLSELSQEEQKEIKEAEEKLVRTILKYVEEAAK |
| 8.56 | K93P (designed binder) SMEEEVEKAAKEYEKKKKEAIEKHLEKLKAKDKEAAERFLKELEEAAKEYAKDEAKTMSEEEAKRRAKKYKEKVLLSELSEEEQKEIKEAEEPLVRTILKYVEEAAK |
| 0.304 | R65Q (designed binder) SMEEEVEKAAKEYEKKKKEAIEKHLEKLKAKDKEAAERFLKELEEAAKEYAKDEAKTMSEEEAKQRAKKYKEKVLLSELSEEEQKEIKEAEEKLVRTILKYVEEAAK |
| 0.593 | K71H (designed binder) SMEEEVEKAAKEYEKKKKEAIEKHLEKLKAKDKEAAERFLKELEEAAKEYAKDEAKTMSEEEAKRRAKKYHEKVLLSELSEEEQKEIKEAEEKLVRTILKYVEEAAK |
| 2.48 | K69C (designed binder) SMEEEVEKAAKEYEKKKKEAIEKHLEKLKAKDKEAAERFLKELEEAAKEYAKDEAKTMSEEEAKRRAKCYKEKVLLSELSEEEQKEIKEAEEKLVRTILKYVEEAAK |
| 2.48 | S77G (designed binder) SMEEEVEKAAKEYEKKKKEAIEKHLEKLKAKDKEAAERFLKELEEAAKEYAKDEAKTMSEEEAKRRAKKYKEKVLLGELSEEEQKEIKEAEEKLVRTILKYVEEAAK |
| 1.54 | A106T (designed binder) SMEEEVEKAAKEYEKKKKEAIEKHLEKLKAKDKEAAERFLKELEEAAKEYAKDEAKTMSEEEAKRRAKKYKEKVLLSELSEEEQKEIKEAEEKLVRTILKYVEEATK |
| 0.79 | L79M (designed binder) SMEEEVEKAAKEYEKKKKEAIEKHLEKLKAKDKEAAERFLKELEEAAKEYAKDEAKTMSEEEAKRRAKKYKEKVLLSEMSEEEQKEIKEAEEKLVRTILKYVEEAAK |
| 2.73 | E72S (designed binder) SMEEEVEKAAKEYEKKKKEAIEKHLEKLKAKDKEAAERFLKELEEAAKEYAKDEAKTMSEEEAKRRAKKYKSKVLLSELSEEEQKEIKEAEEKLVRTILKYVEEAAK |
| 3 | S80W (designed binder) SMEEEVEKAAKEYEKKKKEAIEKHLEKLKAKDKEAAERFLKELEEAAKEYAKDEAKTMSEEEAKRRAKKYKEKVLLSELWEEEQKEIKEAEEKLVRTILKYVEEAAK |
| 2.73 | L79S (designed binder) SMEEEVEKAAKEYEKKKKEAIEKHLEKLKAKDKEAAERFLKELEEAAKEYAKDEAKTMSEEEAKRRAKKYKEKVLLSESSEEEQKEIKEAEEKLVRTILKYVEEAAK |
| 0.956 | K100N (designed binder) SMEEEVEKAAKEYEKKKKEAIEKHLEKLKAKDKEAAERFLKELEEAAKEYAKDEAKTMSEEEAKRRAKKYKEKVLLSELSEEEQKEIKEAEEKLVRTILNYVEEAAK |
| 0.446 | K88N (designed binder) SMEEEVEKAAKEYEKKKKEAIEKHLEKLKAKDKEAAERFLKELEEAAKEYAKDEAKTMSEEEAKRRAKKYKEKVLLSELSEEEQKEINEAEEKLVRTILKYVEEAAK |
| 1.4 | K68T (designed binder) SMEEEVEKAAKEYEKKKKEAIEKHLEKLKAKDKEAAERFLKELEEAAKEYAKDEAKTMSEEEAKRRATKYKEKVLLSELSEEEQKEIKEAEEKLVRTILKYVEEAAK |
